Measured values as given in paper PMC8748450.

Target: apo-LgnD-C1-T1-C2 tridomain (truncated LgnD)
Assay: ITC; LgnA (125 µM) titrated into LgnD or truncated LgnD (25 µM), also into LgnB (concentrations for LgnB not told); thirteen 3 µL injections, 25 °C; one set binding model; MicroCal PEAQ-ITC

- Kd: 1700 nM
Substance: LgnA, type II thioesterase (TEII) orthologue (enzyme)
